Test results reported in publication PMC6995596, “The Plasma Factor XIII Heterotetrameric Complex Structure: Unexpected Unequal Pairing within a Symmetric Complex” (Biomolecules, 2019).

T1: recombinant FXIII-B (coagulation factor XIII B subunit) (human, UniProt P05160 21-661)
T1 chain: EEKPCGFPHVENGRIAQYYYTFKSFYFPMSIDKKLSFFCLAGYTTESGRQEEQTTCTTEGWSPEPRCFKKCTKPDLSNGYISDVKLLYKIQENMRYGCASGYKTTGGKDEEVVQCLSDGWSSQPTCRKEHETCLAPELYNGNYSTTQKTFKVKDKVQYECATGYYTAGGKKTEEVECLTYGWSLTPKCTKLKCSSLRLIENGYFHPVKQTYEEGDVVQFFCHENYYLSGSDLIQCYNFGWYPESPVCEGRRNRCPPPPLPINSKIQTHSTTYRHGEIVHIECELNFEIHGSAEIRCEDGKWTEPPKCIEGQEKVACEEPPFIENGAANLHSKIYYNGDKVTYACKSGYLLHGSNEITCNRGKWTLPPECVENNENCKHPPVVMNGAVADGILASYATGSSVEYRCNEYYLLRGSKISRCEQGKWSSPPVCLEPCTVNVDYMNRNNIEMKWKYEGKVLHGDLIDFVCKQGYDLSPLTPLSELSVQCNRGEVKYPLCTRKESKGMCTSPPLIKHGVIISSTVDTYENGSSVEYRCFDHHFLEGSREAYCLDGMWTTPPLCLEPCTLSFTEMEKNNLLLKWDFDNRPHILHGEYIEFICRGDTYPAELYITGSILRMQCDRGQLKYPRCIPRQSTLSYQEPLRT

B1: recombinant FXIII-B (coagulation factor XIII B subunit) (natural protein, human, UniProt P05160 21-661, looked up)
chain: T1 chain
notes: coagulation factor XIII B subunit, human cDNA in the pReciever-M01 mammalian expression vector; secreted protein; the stepwise ITC model treats the syringe species as single FXIII-B units; also called rFXIII-B; rFXIII-B2
B2: recombinant FXIII-A2 (coagulation factor XIII A subunit dimer) (natural protein)
chain: SETSRTAFGGRRAVPPNNSNAAEDDLPTVELQGVVPRGVNLQEFLNVTSVHLFKERWDTNKVDHHTDKYENNKLIVRRGQSFYVQIDFSRPYDPRRDLFRVEYVIGRYPQENKGTYIPVPIVSELQSGKWGAKIVMREDRSVRLSIQSSPKCIVGKFRMYVAVWTPYGVLRTSRNPETDTYILFNPWCEDDAVYLDNEKEREEYVLNDIGVIFYGEVNDIKTRSWSYGQFEDGILDTCLYVMDRAQMDLSGRGNPIKVSRVGSAMVNAKDDEGVLVGSWDNIYAYGVPPSAWTGSVDILLEYRSSENPVRYGQCWVFAGVFNTFLRCLGIPARIVTNYFSAHDNDANLQMDIFLEEDGNVNSKLTKDSVWNYHCWNEAWMTRPDLPVGFGGWQAVDSTPQENSDGMYRCGPASVQAIKHGHVCFQFDAPFVFAEVNSDLIYITAKKDGTHVVENVDATHIGKLIVTKQIGGDGMMDITDTYKFQEGQEEERLALETALMYGAKKPLNTEGVMKSRSNVDMDFEVENAVLGKDFKLSITFRNNSHNRYTITAYLSANITFYTGVPKAEFKKETFDVTLEPLSFKKEAVLIQAGEYMGQLLEQASLHFFVTARINETRDVLAKQKSTVLTIPEIIIKVRGTQVVGSDMTVTVEFTNPLKETLRNVWVHLDGPGVTRPMKKMFREIRPNSTVQWEEVCRPWVSGHRKLIASMSSDSLRHVYGELDVQIQRRPSM
modifications: zymogen dimer with activation peptide retained (paper residues 1-37 = entry 2-38; paper numbering = entry minus 1); initiator Met removed; limits follow the paper's domain boundaries (1-731) and PDB 1F13; any residual tag residues not stated

Legend:
[1] = target: recombinant FXIII-A2 (coagulation factor XIII A subunit dimer) (UniProt P00488 2-732, zymogen dimer with activation peptide retained (paper residues 1-37 = entry 2-38; paper numbering = entry minus 1); initiator Met removed; limits follow the paper's domain boundaries (1-731) and PDB 1); assay: ITC; 2.5 µM rFXIII-A2 in the cell, 25 µM rFXIII-B in the syringe; MicroCal200; one set of binding sites fitted in Origin, stepwise model FS ↔ MA + A1 ↔ MA2 fitted in Affinimeter; settings: both partners purified
[2] = target: T1, recombinant FXIII-B (coagulation factor …); assay: ITC; event 2: M1A1 + A1 ↔ M1A2 (second site)

| Binder | KD of the first binding event (sequential two-step model) [1] [µM] | KD of the second binding event (MA↔MA2) [1] [µM] | dH of the first binding event (sequential two-step model) [1] [kcal/mol] | dH of the second binding event (MA↔MA2) [1] [kcal/mol] | Kd [2] [µM] |
| --- | --- | --- | --- | --- | --- |
| B1 | 0.0015 | 4.3 | -54.1 | -86 |  |
| B2 |  |  |  |  | 4.36 |
